Results taken from patent publication US20120178139A1 (published 2012).
Blank lines part the entries; values can stand above or below the binder they belong to.

How the values were obtained:
[1] = molecular target: T1, mouse glycophorin-A on mouse erythrocytes (mouse, UniProt P14220 1-168); test: photo-crosslinking of biotinylated peptide to whole mouse erythrocytes, streptavidin pull-down and streptavidin Western blot
Experimental: When whole erythrocytes were incubated with ERY1 peptide functionalized with biotin and a photoactivatable crosslinker, a single 28 kDa protein was conjugated with the peptide-biotin complex, as detected by a streptavidin Western blot (FIG. 2A). The reaction lysate was extensively washed and purified using streptavidin magnetic beads to ensure no unlabeled proteins from the erythrocyte lysate remained. […] The mismatch peptide, […] (SEQ ID NO:2), was designed to contain the same amino acid residues as ERY1, and to match its hydrophobicity topography. […] Anti-GYPA Western blotting of the same purified samples from the crosslinking reaction confirmed that the candidate biotinylated protein was indeed GYPA (FIG. 2B).
In brief, peptides were solubilized in PBS/DMF and reacted with 1.05 equivalents of Mts-atf-biotin overnight at 4° C. Following clarification of the reaction by centrifugation, biotinylated peptide was incubated with erythrocytes at in PBSA-50 for 1 h at 37° C., cells were washed twice in fresh PBS, and were UV irradiated at 365 nm for 8 min at room temperature. Cells were lysed by sonication and the lysate was purified using streptavidin-coated magnetic beads (Invitrogen). The eluate was run on an SDS-PAGE and transferred to a PVDF membrane, and immunoblotted with streptavidin-HRP(R&D Systems) or anti-mouse GYPA.

[2] = molecular target: T1, mouse glycophorin-A on mouse …; test: equilibrium binding to mouse erythrocytes, flow cytometry, one-site binding fit
[3] = molecular target: T1, mouse glycophorin-A on mouse …; test: in vivo, geometric mean fluorescence of circulating erythrocytes by flow cytometry, one-phase exponential decay
Experimental: Consistent with glycophorin-A association, ERY1-OVA bound to erythrocytes (CD45⁻) but not to leukocytes (CD45⁺). ERY1-OVA binding was unbiased as to the apoptotic state of the erythrocytes, binding strongly to both annexin-V⁺ and annexin-V⁻ CD45⁻ populations (FIG. 9b).
150 μg of ERY1-OVA or OVA in 0.9% saline (B. Braun) in a volume of 100 μL was injected intravenously into the tail of 8-12 week old female C57BL/6 mice while under anesthesia with isoflurane. Care was taken to ensure mice were kept at 37 C with a heating pad during experimentation. At predetermined time points, 5 μL of blood was taken from a small incision on the tail, diluted 100-fold into 10 mM EDTA in PBS, washed three times with PBS with 10 mg/mL BSA, and analyzed for OVA content by flow cytometry and ELISA. OVA was quantified by sandwich ELISA, using a mouse monoclonal anti-OVA antibody (Sigma) for capture, a polyclonal rabbit anti-OVA antibody (AbD SEROTEC) for detection, a goat anti-rabbit-IgG-HRP antibody (BioRad) for final detection, followed by TMB substrate (GE Life Sciences). Hematological characterization was performed on an ADVIVA 2120 Hematology System (Siemens). Erythrocyte-bound ERY1-GST was detected by incubating labeled cells with goat anti-GST (GE Healthcare Life Sciences), followed by incubation with AlexaFluor488 donkey anti-goat (Invitrogen), and analyzed by flow cytometry. […]

- binding result [1]: no binding
Binder: H-PLLTVGMDLWPWGGSGCRG-NH2 (not fully specified (residue 17); also: conjugated to Mts-Atf-biotin, Same amino acids as ERY1, scrambled) [mismatch peptide, soluble, biotinylated (H2N-PLLTVGMDLWPWGGSGCRG-CONH2 conjugated to Mts-Atf-biotin)]

- Kd [2]: 6.2 nM
- cell-surface half-life [3]: 17.2 h
B1: ERY1-OVA (ovalbumin chemically conjugated with ERY1 peptide through SMCC) (other)
chain: GSIGAASMEFCFDVFKELKVHHANENIFYCPIAIMSALAMVYLGAKDSTRTQINKVVRFDKLPGFGDSIEAQCGTSVNVHSSLRDILNQITKPNDVYSFSLASRLYAEERYPILPEYLQCVKELYRGGLEPINFQTAADQARELINSWVESQTNGIIRNVLQPSSVDSQTAMVLVNAIVFKGLWEKAFKDEDTQAMPFRVTEQESKPVQMMYQIGLFRVASMASEKMKILELPFASGTMSMLVLLPDEVSGLEQLESIINFEKLTEWTSSNVMEERKIKVYLPRMKMEEKYNLTSVLMAMGITDVFSSSANLSGISSAESLKISQAVHAAHAEINEAGREVVGSAEAGVDAASVSEEFRADHPFLFCIKHIATNAVLFFGRCVSP
peptide: WMVLPWLPGTLDGGSGCRG
modifications: C-terminal amide; cysteine side chain conjugated via SMCC to lysines of OVA; lysine side chains carry SMCC linked to the cysteine of the ERY1 peptide
notes: also called ERY1-conjugated antigen
